Experimental data from patent US20240400663A1 (Regeneron, published 2024).

What was measured:
Assay in all cases: cell-based or functional assay
[1] = biological target: T1, PfRH5 of Plasmodium falciparum strain 7G8 (on live parasites) (Plasmodium falciparum)
[2] = biological target: PfRH5 of Plasmodium falciparum strain Cam3.II (on live parasites) (Plasmodium falciparum)
[3] = biological target: T2, PfRH5 of Plasmodium falciparum strain FCR-1/FVO (on live parasites) (Plasmodium falciparum)
[4] = biological target: PfRH5 of Plasmodium falciparum strain W2-mef (on live parasites) (Plasmodium falciparum)
[5] = biological target: PfRH5 of Plasmodium falciparum strain RF7 (on live parasites) (Plasmodium falciparum)
[6] = biological target: PfRH5 of Plasmodium falciparum strain D10 (on live parasites) (Plasmodium falciparum)
[7] = biological target: T3, PfRH5 of Plasmodium falciparum strain Dd2 (on live parasites) (Plasmodium falciparum)
[8] = biological target: PfRH5 of Plasmodium falciparum strain HB3 (on live parasites) (Plasmodium falciparum)
[9] = biological target: T2, PfRH5 of Plasmodium falciparum strain …; remark: listed apart in the source
[10] = biological target: T1, PfRH5 of Plasmodium falciparum strain …; remark: listed apart in the source
[11] = biological target: T3, PfRH5 of Plasmodium falciparum strain …; remark: listed apart in the source

B1: H1H29187P2 (antibody, V domains shown)
VH: QVQLVESGGGVVQPGRFLRLSCAASGFTFSNSGMHWVRQAPGKGLEWVAGIWHDGSYKYYVDSVKGRFTISRDNSKNTLFLQMNSLRAEDTAVYYCARDDYYASGTSVDVWGQGTTVTVSS
VL: not shown
Max growth inhibition (%) 7G8, no chloroquine [1]: 49.3% | Max growth inhibition (%) Cam3.II [2]: 49.2% | Max growth inhibition (%) FCR-1/FVO [3]: 72.2% | Max growth inhibition (%) W2-mef [4]: 67.3% | Max growth inhibition (%) RF7 [5]: 32.7% | Max growth inhibition (%) D10 [6]: 79.6% | Max growth inhibition (%) Dd2 [7]: 66% | Max growth inhibition (%) HB3 [8]: 63.9% | Percent Maximum Growth Inhibition, FCR-1/FVO, mAb (6.67 µM) + AHIS (10%) [9]: 89.4% | Percent Maximum Growth Inhibition, FCR-1/FVO, mAb (6.67 µM) + ANS (10%) [9]: 80.1% | Percent Maximum Growth Inhibition, FCR-1/FVO, mAb (6.67 µM) + HHIS (10%) [9]: 85.4% | Percent Maximum Growth Inhibition, FCR-1/FVO, mAb (6.67 µM) + HNS (10%) [9]: 85.9% | Percent Maximum Growth Inhibition, FCR-1/FVO, mAb (6.67 µM) + No serum [9]: 85.3%

B2: H1H29089P (antibody, V domains shown)
VH: EVQLVQSGAEVKKPGESLKISCKGSGYSFTSYWIVWVRQMPGKGLEWMGIIYPGDSDTRYSPSFQGQVTISADKSISTAYLQWSSLKASDTAMYYCARQDITGTTGFDYWGQGTLVTVSS
VL: DIQMTQSPSSLSASVGDRVTITCRASQSIRNYLNWYQQKPGKAPKLLIYAASSLQSGVPSRFSGSGSGTDFTLTISSLQPEDFATYFCQQSYSTPFTFGPGTKVDIKR
Max growth inhibition (%) 7G8, no chloroquine [1]: 51.1% | Max growth inhibition (%) Cam3.II [2]: 56.2% | Max growth inhibition (%) FCR-1/FVO [3]: 66% | Max growth inhibition (%) W2-mef [4]: 66.4% | Max growth inhibition (%) 7G8 [10]: 70.1% | Max growth inhibition (%) RF7 [5]: 28.9% | Max growth inhibition (%) D10 [6]: 82.3% | Max growth inhibition (%) Dd2 [7]: 71.3% | Max growth inhibition (%) HB3 [8]: 59.1% | Percent Maximum Growth Inhibition, FCR-1/FVO, mAb (6.67 µM) + AHIS (10%) [9]: 84.3% | Percent Maximum Growth Inhibition, FCR-1/FVO, mAb (6.67 µM) + ANS (10%) [9]: 75.7% | Percent Maximum Growth Inhibition, FCR-1/FVO, mAb (6.67 µM) + HHIS (10%) [9]: 85.2% | Percent Maximum Growth Inhibition, FCR-1/FVO, mAb (6.67 µM) + HNS (10%) [9]: 85% | Percent Maximum Growth Inhibition, FCR-1/FVO, mAb (6.67 µM) + No serum [9]: 85.3%

B3: H1H29100P (antibody, V domains shown)
VH: QLQLQESGPGLVKPSETLSLTCTVSGGSISSSSYYWGWIRQPPGKGLEWIGIIYYSGSTYYNPSLKSRVTISVDTSKNQFSLKLSSVTAADTAVYYCARQDREALFDYWGQGTLVTVSS
VL: EIVLTQSPDFQSVTPKEKVTITCRASQRIGSSLHWYQQKPDQSPKLLIKYASQSFSGVPSRFSGSGSGTDFTLTINSLEAEDAATYYCHQSSTLPTFGQGTRLEIKR
Max growth inhibition (%) 7G8, no chloroquine [1]: 48.9% | Max growth inhibition (%) Cam3.II [2]: 52.4% | Max growth inhibition (%) FCR-1/FVO [3]: 66.9% | Max growth inhibition (%) W2-mef [4]: 67.3% | Max growth inhibition (%) 7G8 [10]: 66.4% | Max growth inhibition (%) RF7 [5]: 17% | Max growth inhibition (%) D10 [6]: 81.7% | Max growth inhibition (%) Dd2 [7]: 64.6% | Max growth inhibition (%) HB3 [8]: 62.6% | Maximum growth inhibition (%) Dd2 [11]: 65.7% | Percent Maximum Growth Inhibition, FCR-1/FVO, mAb (6.67 µM) + AHIS (10%) [9]: 82.5% | Percent Maximum Growth Inhibition, FCR-1/FVO, mAb (6.67 µM) + ANS (10%) [9]: 73.2% | Percent Maximum Growth Inhibition, FCR-1/FVO, mAb (6.67 µM) + HHIS (10%) [9]: 81.9% | Percent Maximum Growth Inhibition, FCR-1/FVO, mAb (6.67 µM) + HNS (10%) [9]: 82.4% | Percent Maximum Growth Inhibition, FCR-1/FVO, mAb (6.67 µM) + No serum [9]: 83.9%

B4: H1H29147P2 (antibody, V domains shown)
VH: QVQLVQSGAEVKNPGSSVKVSCKASGGTFSSYTINWVRQAPGQGLEWMGGIIPLYGTANYAQKFQARVTISTDESTNTAYMELSNLRFEDTAVYFCASTLELRAFDAFDIWGQGTMVTVSS
VL: not shown
Max growth inhibition (%) 7G8, no chloroquine [1]: 47.3% | Max growth inhibition (%) Cam3.II [2]: 51.9% | Max growth inhibition (%) FCR-1/FVO [3]: 70.3% | Max growth inhibition (%) W2-mef [4]: 64.7% | Max growth inhibition (%) 7G8 [10]: 65.2% | Max growth inhibition (%) RF7 [5]: 31.4% | Max growth inhibition (%) D10 [6]: 81.4% | Max growth inhibition (%) Dd2 [7]: 65.3% | Max growth inhibition (%) HB3 [8]: 64.8% | Percent Maximum Growth Inhibition, FCR-1/FVO, mAb (6.67 µM) + AHIS (10%) [9]: 86.2% | Percent Maximum Growth Inhibition, FCR-1/FVO, mAb (6.67 µM) + ANS (10%) [9]: 80.3% | Percent Maximum Growth Inhibition, FCR-1/FVO, mAb (6.67 µM) + HHIS (10%) [9]: 83.4% | Percent Maximum Growth Inhibition, FCR-1/FVO, mAb (6.67 µM) + HNS (10%) [9]: 85.6% | Percent Maximum Growth Inhibition, FCR-1/FVO, mAb (6.67 µM) + No serum [9]: 84.1%
